Laboratory results: the supplement of paper PMC6757056
± gives the standard deviation of the averaged measurements.

B1: library; a variant is named by its letters at N, in order (parent)
chain: GCUGUCACCGGUGUAUUACCCUAGUGGUCGACCGGUCUGAUGAGUCUNNNNNNAGACGAAACAGC

Experiments:
hypoxanthine [1] = variants of: B1; assay: normalized RNA/DNA level with ligand (relative to sTRSVctl = 100) (log10 (% of sTRSVctl)); ligand: hypoxanthine (xanthine aptamer); higher = less ribozyme self-cleavage, higher mRNA level; details: ligand concentration (+) RNA-Seq: 5 mM, HEK293T, reporter: mCherry (pCS4076), ligand present: yes
Procedure, shortened: (§1)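 Library plasmids carrying ribozyme switches linked to mCherry, or to eGFP in some ligand experiments, were transfected into HEK293T at 4 µg per 6-well well, with any ligand added 1 h earlier. Seventy-two hours on, total RNA was extracted with EDTA and reverse-transcribed, amplified, barcoded and sequenced. RNA level was RNA over DNA reads normalized to a spiked-in non-cleaving sequence or to the top sequences, then scaled and log-transformed. The top set was 25 sequences, the transform was ×100 and log10, and sequences needed ≥100 DNA reads.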

hypoxanthine [2] = variants of: B1; assay: normalized RNA/DNA level without ligand (relative to sTRSVctl = 100) (log10 (% of sTRSVctl)); ligand: hypoxanthine (xanthine aptamer); higher = less ribozyme self-cleavage, higher mRNA level; details: HEK293T, reporter: mCherry (pCS4076), ligand present: no
Procedure, shortened: as §1

Variant | normalized RNA/DNA level with ligand (log10) (hypoxanthine [1]) | normalized RNA/DNA level without ligand (log10) (hypoxanthine [2])
UUUUUU | 1.973 ± 0.01 | 1.973 ± 0.017
CGGAAC | 1.85 ± 0.026 | 1.51 ± 0.072
GCCAGA | 1.909 ± 0.0037 | 1.72 ± 0.056
UCCCAU | 1.93 ± 0.032 | 1.829 ± 0.0082
GUUGGU | 1.9283 ± 0.00055 | 1.78 ± 0.021
AAUUUU | 1.946 ± 0.013 | 1.886 ± 0.0096
CUUAUG | 1.91 ± 0.039 | 1.91 ± 0.018
CGGGCG | 1.973 ± 0.012 | 1.76 ± 0.024
UGGACA | 1.95 ± 0.021 | 1.812 ± 0.0084
CCGUCU | 1.97 ± 0.036 | 1.83 ± 0.063
UAUAUC | 1.94 ± 0.044 | 1.936 ± 0.0031
GAUUUC | 1.972 ± 0.018 | 1.907 ± 0.012
UACACG | 1.87 ± 0.035 | 1.63 ± 0.02
GACUAC | 1.94 ± 0.026 | 1.804 ± 0.0039
CGGCUA | 1.935 ± 0.017 | 1.67 ± 0.031
GGUAUC | 1.957 ± 0.017 | 1.82 ± 0.013
GGCCAU | 1.957 ± 0.003 | 1.919 ± 0.018
UGUAGC | 1.94 ± 0.046 | 1.796 ± 0.0085
GGCUAG | 1.812 ± 0.005 | 1.54 ± 0.039
AUGCAU | 1.87 ± 0.032 | 1.76 ± 0.019
GAGCAU | 1.944 ± 0.018 | 1.72 ± 0.022
UCUUUC | 2.01 ± 0.052 | 1.99 ± 0.068
UCACAA | 1.92 ± 0.061 | 1.75 ± 0.019
GCAUCC | 1.86 ± 0.069 | 1.82 ± 0.025

Variant | normalized RNA/DNA level with ligand (log10) (hypoxanthine [1]) | normalized RNA/DNA level without ligand (log10) (hypoxanthine [2])
AGAUUG | 1.88 ± 0.042 | 1.47 ± 0.022
GGAUUC | 1.98 ± 0.041 | 1.94 ± 0.0086
CGUCUA | 1.93 ± 0.025 | 1.87 ± 0.029
UGUAUA | 1.97 ± 0.029 | 1.866 ± 0.0081
UCAGAU | 1.96 ± 0.037 | 1.76 ± 0.066
CCGGCG | 1.94 ± 0.13 | 1.72 ± 0.14
CCGGCU | 2.04 ± 0.043 | 1.99 ± 0.024
CCGGCC | 1.98 ± 0.029 | 2 ± 0.051
AGGUGU | 1.92 ± 0.028 | 1.49 ± 0.098
CCAAGA | 1.945 ± 0.0033 | 1.82 ± 0.034
AAGUUC | 1.9 ± 0.052 | 1.787 ± 0.0052
UAGCGU | 1.88 ± 0.055 | 1.46 ± 0.12
GGGGAU | 1.895 ± 0.015 | 1.749 ± 0.0068
GACGGC | 1.95 ± 0.07 | 1.63 ± 0.055
GCCCAC | 1.92 ± 0.023 | 1.76 ± 0.028
UGGUGA | 1.88 ± 0.023 | 1.52 ± 0.088
AGUAUG | 1.824 ± 0.017 | 1.39 ± 0.043
UCGCGC | 2.01 ± 0.035 | 1.8 ± 0.024
UAAUAC | 1.929 ± 0.013 | 1.79 ± 0.026
UCAGGC | 1.96 ± 0.073 | 1.96 ± 0.03
UCAGGU | 1.87 ± 0.052 | 1.654 ± 0.0062
CCUUGA | 1.97 ± 0.09 | 1.86 ± 0.026
ACACUA | 1.94 ± 0.053 | 1.801 ± 0.0044
ACCCAA | 1.896 ± 0.013 | 1.801 ± 0.013

Variant | normalized RNA/DNA level with ligand (log10) (hypoxanthine [1]) | normalized RNA/DNA level without ligand (log10) (hypoxanthine [2])
UUCUCU | 1.99 ± 0.084 | 1.89 ± 0.051
CGGUCA | 2.011 ± 0.012 | 1.8 ± 0.026
CGGUCG | 1.9971 ± 7.8e-05 | 1.87 ± 0.023
CUAUCU | 1.9 ± 0.075 | 1.89 ± 0.042
GGUCAG | 1.94 ± 0.023 | 1.69 ± 0.012
UGUUCU | 1.93 ± 0.058 | 1.97 ± 0.051
CGAGCC | 1.94 ± 0.11 | 1.852 ± 0.0083
UCGUAC | 1.94 ± 0.055 | 1.77 ± 0.031
GCAAGG | 1.84 ± 0.04 | 1.35 ± 0.032
GCUGAC | 1.9 ± 0.034 | 1.63 ± 0.034
UUAGAC | 1.9 ± 0.083 | 1.82 ± 0.022
GCUCUC | 1.98 ± 0.021 | 1.89 ± 0.079
UUCGAG | 1.88 ± 0.038 | 1.544 ± 0.0067
ACCCUC | 1.936 ± 0.0052 | 1.895 ± 0.00022
AGUUUG | 1.89 ± 0.077 | 1.55 ± 0.035
CCCGCU | 1.94 ± 0.056 | 1.99 ± 0.03
CCACCG | 1.99 ± 0.028 | 1.84 ± 0.2
AACCAU | 1.873 ± 0.0073 | 1.8 ± 0.04
CUCAGU | 1.97 ± 0.061 | 1.89 ± 0.079
GUCUAC | 1.94 ± 0.043 | 1.8 ± 0.018
UGGGGG | 1.883 ± 0.0071 | 1.57 ± 0.054
GCAAUU | 1.952 ± 0.011 | 1.858 ± 0.0079
CAGGCG | 1.96 ± 0.035 | 1.837 ± 0.0025
CAGGCU | 1.938 ± 0.0094 | 1.919 ± 0.0073

Variant | normalized RNA/DNA level with ligand (log10) (hypoxanthine [1]) | normalized RNA/DNA level without ligand (log10) (hypoxanthine [2])
CCAAAG | 1.885 ± 0.013 | 1.58 ± 0.033
CUAUAU | 1.951 ± 0.014 | 1.81 ± 0.038
UUCAGG | 1.92 ± 0.025 | 1.79 ± 0.053
CAGGUU | 1.975 ± 0.0057 | 1.86 ± 0.0041
ACAUAU | 1.89 ± 0.072 | 1.6935 ± 0.0011
UCUAUA | 1.893 ± 0.016 | 1.858 ± 0.013
GGCGAA | 1.92 ± 0.037 | 1.801 ± 0.017
GAUACC | 1.95 ± 0.03 | 1.875 ± 0.016
GGCGGU | 1.957 ± 0.014 | 1.949 ± 0.017
GGGUCG | 1.99 ± 0.02 | 1.78 ± 0.051
UACUAC | 1.95 ± 0.056 | 1.926 ± 0.0063
UGCGUU | 1.986 ± 0.0098 | 1.921 ± 0.0049
UUGUAC | 2 ± 0.025 | 1.973 ± 0.0097
ACGCUU | 1.907 ± 0.016 | 1.5 ± 0.022
ACGCUA | 1.948 ± 0.0038 | 1.69 ± 0.063
UAUGAU | 1.91 ± 0.022 | 1.7488 ± 0.0016
CCCGUU | 1.93 ± 0.056 | 1.9 ± 0.024
AGCCAC | 1.931 ± 0.014 | 1.8318 ± 6.2e-05
GAUCUC | 1.939 ± 0.0052 | 1.976 ± 0.0046
GAUCUG | 1.92 ± 0.051 | 1.58 ± 0.039
AGAGCU | 1.93 ± 0.029 | 1.83 ± 0.046
UAUCAU | 1.922 ± 0.017 | 1.79 ± 0.045
CAGAUG | 1.94 ± 0.03 | 1.808 ± 0.011
GAGGGG | 1.814 ± 0.015 | 1.34 ± 0.033

Variant | normalized RNA/DNA level with ligand (log10) (hypoxanthine [1]) | normalized RNA/DNA level without ligand (log10) (hypoxanthine [2])
ACCAGA | 1.952 ± 0.009 | 1.77 ± 0.024
CUGUGA | 1.976 ± 0.0082 | 1.82 ± 0.065
GUCUUC | 1.99 ± 0.042 | 1.9928 ± 0.0007
UAAUGA | 1.91 ± 0.024 | 1.653 ± 0.0099
UAAUGU | 1.89 ± 0.045 | 1.599 ± 0.0059
UAUUAG | 1.873 ± 0.0072 | 1.6759 ± 0.00016
UUGAGU | 1.92 ± 0.026 | 1.75 ± 0.026
CGCCAU | 1.88 ± 0.046 | 1.87 ± 0.021
CGCCAC | 1.92 ± 0.043 | 1.84 ± 0.05
CCUGUU | 2.04 ± 0.05 | 1.9 ± 0.14
AAAACC | 1.93 ± 0.033 | 1.876 ± 0.018
UUCGGG | 1.95 ± 0.044 | 1.73 ± 0.027
GAGGUA | 1.862 ± 0.011 | 1.673 ± 0.0085
GGAACC | 1.957 ± 0.0033 | 1.86 ± 0.021
GCAAAG | 1.894 ± 0.0041 | 1.501 ± 0.0085
UCGCCG | 2 ± 0.035 | 1.841 ± 0.008
UUAUUU | 1.91 ± 0.033 | 1.91 ± 0.031
CCAGGU | 1.99 ± 0.067 | 1.833 ± 0.0077
AGUUAU | 1.89 ± 0.057 | 1.8 ± 0.068
CGUAUC | 1.93 ± 0.07 | 1.902 ± 0.018
